Where a chain is given by its changes, count along the chain named.
B1: hz16E5-1.2 (antibody, human IgG4 S228P, kappa)
heavy: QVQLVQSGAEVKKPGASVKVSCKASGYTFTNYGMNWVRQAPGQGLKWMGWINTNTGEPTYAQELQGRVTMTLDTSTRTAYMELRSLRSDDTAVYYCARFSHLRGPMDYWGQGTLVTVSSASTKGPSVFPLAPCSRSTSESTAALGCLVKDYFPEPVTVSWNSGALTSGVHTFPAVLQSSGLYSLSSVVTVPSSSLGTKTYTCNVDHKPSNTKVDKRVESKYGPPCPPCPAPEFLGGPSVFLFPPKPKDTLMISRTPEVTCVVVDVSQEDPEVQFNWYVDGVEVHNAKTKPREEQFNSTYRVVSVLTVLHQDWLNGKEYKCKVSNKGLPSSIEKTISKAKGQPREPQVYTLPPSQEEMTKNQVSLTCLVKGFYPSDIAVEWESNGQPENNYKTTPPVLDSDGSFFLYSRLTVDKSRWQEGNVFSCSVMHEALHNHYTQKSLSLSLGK
light: DIQMTQSPSSLSASVGDRVTITCRSSQSLVHSNGYTYLHWYQQKPGKAPKLLIYKVSNRFSGVPSRFSGSGSGTDFTLTISSLQPEDFATYYCSQSTHVPPTFGQGTKLEIKRTVAAPSVFIFPPSDEQLKSGTASVVCLLNNFYPREAKVQWKVDNALQSGNSQESVTEQDSKDSTYSLSSTLTLSKADYEKHKVYACEVTHQGLSSPVTKSFNRGEC
notes: humanized 16E5, full-length heavy and light chains
B2: hz16E5-1.1 (antibody, human IgG4 S228P, kappa)
heavy: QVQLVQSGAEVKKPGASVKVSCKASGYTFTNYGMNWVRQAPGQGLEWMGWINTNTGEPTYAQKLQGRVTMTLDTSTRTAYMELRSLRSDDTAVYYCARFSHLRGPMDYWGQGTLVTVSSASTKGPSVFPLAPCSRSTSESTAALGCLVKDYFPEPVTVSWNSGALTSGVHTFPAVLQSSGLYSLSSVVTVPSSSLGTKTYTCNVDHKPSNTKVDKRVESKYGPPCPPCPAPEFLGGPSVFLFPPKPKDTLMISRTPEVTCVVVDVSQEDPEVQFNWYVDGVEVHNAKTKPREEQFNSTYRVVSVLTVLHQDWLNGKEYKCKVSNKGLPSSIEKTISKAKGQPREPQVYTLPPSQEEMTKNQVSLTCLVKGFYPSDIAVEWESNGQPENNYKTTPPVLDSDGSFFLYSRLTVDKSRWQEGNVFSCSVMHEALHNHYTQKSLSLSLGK
light: B1 light
notes: as for B1
B3: hz16E5-3.2 (antibody, human IgG4 S228P, kappa)
heavy: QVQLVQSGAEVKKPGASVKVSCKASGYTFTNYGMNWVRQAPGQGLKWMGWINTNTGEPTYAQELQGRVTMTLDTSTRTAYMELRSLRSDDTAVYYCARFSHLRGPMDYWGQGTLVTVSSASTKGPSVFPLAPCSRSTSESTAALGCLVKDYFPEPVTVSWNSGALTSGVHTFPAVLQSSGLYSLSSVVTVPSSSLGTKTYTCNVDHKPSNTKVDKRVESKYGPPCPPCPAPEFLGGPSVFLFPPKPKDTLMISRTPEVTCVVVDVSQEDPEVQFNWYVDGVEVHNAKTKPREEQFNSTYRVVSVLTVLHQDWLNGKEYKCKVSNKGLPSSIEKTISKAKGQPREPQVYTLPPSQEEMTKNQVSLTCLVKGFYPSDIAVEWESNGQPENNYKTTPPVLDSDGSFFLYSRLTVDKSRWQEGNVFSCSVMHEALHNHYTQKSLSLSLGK
light: B1 light with I2A
notes: as for B1
B4: hz3F10-3.1 (antibody, human IgG4 S228P, kappa, V domains shown)
VH: QVQLVQSGAEVKKPGSSVKVSCKASGYTFSRYWIEWVRQAPGQGLEWMGEFIPGSDTTNYAQKFQGRVTITADISTSTAYMELSSLRSEDTAVYYCARGGLRRMDYWGQGTLVTVSS
VL: DIQMTQSPSSLSASVGDRVTITCRASSSVSSTYLHWYQQKPGKAPKLLIYTTSTLASGVPSRFSGSGSGTSYTLTISSLQPEDFATYYCQQFSDSTWTFGQGTKLEIKR
notes: humanized 3F10, full-length heavy and light chains
B5: hz3F10-3.2 (antibody, human IgG4 S228P, kappa, V domains shown)
VH: B4 VH with D73E, S77N
VL: B4 VL
notes: as for B4
B6: hz3F10-4.1 (antibody, human IgG4 S228P, kappa, V domains shown)
VH: B4 VH
VL: B4 VL with D94E
notes: as for B4
B7: hz14A9-2.3 (antibody, human IgG4 S228P, kappa, V domains shown)
VH: QVQLVQSGAEVKKPGASVKVSCKVSGFNIEDDYIEWVRQAPGQGLEWMGRIDPANDKTKYAQKFQGRVTMTGDTSTNTVYMELSSLRSEDTAVYYCARPGLRRYYSMDYWGQGTLVTVSS
VL: DIQMTQSPSSLSASVGDRVTITCKASENVVSYVSWYQQKPGKAPKLLIYGASNRYTGVPSRFIGSGSSTDFTLTISSLQPEDFATYYCGQSYSYPLTFGQGTKLEIKR
notes: humanized 14A9, full-length heavy and light chains
B8: hz14A9-2.4 (antibody, human IgG4 S228P, kappa, V domains shown)
VH: B7 VH with A97T
VL: B7 VL
notes: as for B7
B9: hz3F10-1.1 (antibody, human IgG4 S228P, kappa, V domains shown)
VH: B4 VH
VL: B4 VL with S71D, Y72F
notes: as for B4
B10: hz3F10-6.1 (antibody, human IgG4 S228P, kappa, V domains shown)
VH: B4 VH
VL: B4 VL with L48W, D94E
notes: as for B4
B11: hz3F10-5.1 (antibody, human IgG4 S228P, kappa, V domains shown)
VH: B4 VH
VL: B4 VL with L48W
notes: as for B4
B12: hz3F10-1.2 (antibody, human IgG4 S228P, kappa, V domains shown)
VH: B4 VH with D73E, S77N
VL: B4 VL with S71D, Y72F
notes: as for B4
B13: hz3F10-6.2 (antibody, human IgG4 S228P, kappa, V domains shown)
VH: B4 VH with D73E, S77N
VL: B4 VL with L48W, D94E
notes: as for B4
B14: hz3F10-2.1 (antibody, human IgG4 S228P, kappa, V domains shown)
VH: B4 VH
VL: B4 VL with S71D, Y72F, D94E
notes: as for B4
B15: hz3F10-5.2 (antibody, human IgG4 S228P, kappa, V domains shown)
VH: B4 VH with D73E, S77N
VL: B4 VL with L48W
notes: as for B4
B16: hz3F10-2.2 (antibody, human IgG4 S228P, kappa, V domains shown)
VH: B4 VH with D73E, S77N
VL: B4 VL with S71D, Y72F, D94E
notes: as for B4

These binders were tested against T1, CD47 on the red cell surface (Homo sapiens (Human), UniProt Q08722 19-323) (assay: cell-based or functional assay).

| red cell agglutination, lowest concentration causing it | Binder |
| --- | --- |
| 3.3 µg/mL | B1 |
| 3.3 µg/mL | B2 |
| 3.3 µg/mL | B3 |
| 3.3 µg/mL | B4 |
| 3.3 µg/mL | B5 |
| 3.3 µg/mL | B6 |

These binders were tested against CD47 on HL60 cells (UniProt Q08722 19-323, limits assumed) (assay: cell-based or functional assay).

| rate of phagocytosis, antibody 1 µg/mL | rate of phagocytosis, antibody 10 µg/mL | Binder |
| --- | --- | --- |
| 5.1% | 17.8% | B1 |
| 14.8% | 4.02% | B2 |
| 3.02% | 2.03% | B3 |
| 71.5% | 74.9% | B7 |
| 81.7% | 81.7% | B8 |
| 50.6% | 58.7% | B4 |
| 41.2% | 43.1% | B9 |
| 47.6% | 60.9% | B10 |
| 50.5% | 58.5% | B11 |
| 55.5% | 38.9% | B12 |
| 49.3% | 44.2% | B13 |
| 47% | 37.1% | B5 |
| 50.3% | 58.3% | B6 |
| 47.2% | 55.2% | B14 |
| 47.1% | 29.6% | B15 |
| 44.2% | 34.7% | B16 |

These binders were tested against T2, human CD47 protein, His Tag (ACRObiosystems, Cat. No. CD7-H5227) (human, UniProt Q08722 19-139) (assay: ELISA, plate coated with CD47-His).
T2 construct: bought reagent; also called CD47-His; hCD47-His Tag; not shown: His tag

| EC50 | Binder |
| --- | --- |
| 0.16 µg/mL | B1 |
| 0.306 µg/mL | B2 |
| 0.215 µg/mL | B3 |
| 0.157 µg/mL | B7 |
| 0.339 µg/mL | B8 |
| 0.127 µg/mL | B4 |
| 0.07 µg/mL | B9 |
| 0.0563 µg/mL | B10 |
| 0.0993 µg/mL | B11 |
| 0.125 µg/mL | B12 |
| 0.129 µg/mL | B13 |
| 0.166 µg/mL | B5 |
| 0.115 µg/mL | B6 |
| 0.0809 µg/mL | B14 |
| 0.106 µg/mL | B15 |
| 0.106 µg/mL | B16 |

Each binder was assayed against T2, human CD47 protein, His Tag … (assay: Biacore SPR, 25 C, antibody captured on CM5 chip).

| Kd | Binder |
| --- | --- |
| 9.31 nM | B1 |
| 18.9 nM | B2 |
| 17.1 nM | B3 |
| 0.204 nM | B7 |
| 8.55 nM | B8 |
| 1.53 nM | B4 |
| 0.946 nM | B9 |
| 0.592 nM | B10 |
| 0.96 nM | B11 |
| 0.904 nM | B12 |
| 0.765 nM | B13 |
| 1.15 nM | B5 |
| 1.42 nM | B6 |
| 0.836 nM | B14 |
| 0.896 nM | B15 |
| 0.779 nM | B16 |

What follows are binders tested against T3, cynomolgus/rhesus macaque CD47 protein, His Tag (ACRObiosystems, Cat. No. CD7-C52H1) (cynomolgus monkey (cynomolgus/rhesus …, UniProt A0A2K5X523 19-141)) (assay: Biacore SPR, 25 C, antibody captured on CM5 chip).
T3 construct: bought reagent; also called Cynomolgus monkey CD47 protein
T3 sequence (A0A2K5X523 entry or part of it limits assumed): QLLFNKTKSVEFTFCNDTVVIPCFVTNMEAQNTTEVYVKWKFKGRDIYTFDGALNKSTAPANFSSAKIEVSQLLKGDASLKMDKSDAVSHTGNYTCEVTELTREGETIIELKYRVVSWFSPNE

| Kd | Binder |
| --- | --- |
| 2.26 nM | B1 |
| 4.77 nM | B2 |
| 3.1 nM | B3 |
| 3.07 nM | B7 |
| 2 nM | B8 |
| 1.31 nM | B9 |
| 2.47 nM | B10 |
| 1.3 nM | B11 |
| 1.33 nM | B12 |
| 1.15 nM | B13 |
| 1.47 nM | B5 |
| 1.62 nM | B6 |
| 1.17 nM | B14 |
| 1.4 nM | B15 |
| 1.14 nM | B16 |

The binders below were run against T1, CD47 on the red cell surface (assay: flow cytometry on fixed red cells, antibody 1 µg/mL).
Experimental: (§1) Anticoagulated blood was collected and well mixed with an equal amount of normal saline. The mixture was centrifuged at 2000 rpm/min for 5 min, and the supernatant was removed. […] In the first two washings, the mixture was centrifuged at 2000 rpm/min for 5 min, and in the last washing, the mixture was centrifuged at 2000 rpm/min for 10 min, and the supernatant was removed.

| MFI | Binder |
| --- | --- |
| 913 MFI | B1 |
| 945 MFI | B2 |
| 860 MFI | B3 |
| 2510 MFI | B7 |
| 5240 MFI | B8 |
| 6700 MFI | B4 |
| 4450 MFI | B9 |
| 7580 MFI | B10 |
| 7400 MFI | B11 |
| 6250 MFI | B12 |
| 3440 MFI | B13 |
| 5100 MFI | B5 |
| 5980 MFI | B6 |
| 8450 MFI | B14 |
| 5130 MFI | B15 |
| 5610 MFI | B16 |

These binders were tested against T1, CD47 on the red cell surface (assay: flow cytometry on fixed red cells, antibody 10 µg/mL).
Experimental: as §1

| MFI | Binder |
| --- | --- |
| 4730 MFI | B1 |
| 6460 MFI | B2 |
| 4200 MFI | B3 |
| 11000 MFI | B7 |
| 15000 MFI | B8 |
| 41400 MFI | B4 |
| 50500 MFI | B9 |
| 53000 MFI | B10 |
| 50600 MFI | B11 |
| 56700 MFI | B12 |
| 55900 MFI | B13 |
| 45300 MFI | B5 |
| 41900 MFI | B6 |
| 53200 MFI | B14 |
| 53300 MFI | B15 |
| 56100 MFI | B16 |

Each binder was assayed against T4, human CD47 protein on CHO-K1-CD47 cells (human, UniProt Q08722 19-323) (assay: cell binding, CHO-K1-CD47 cells, high content imaging).
T4 construct: whole, on cells; also called CHO-K1 cells expressing human CD47 protein
Experimental: A cell binding assay of anti-CD47 antibodies (chimeric or humanized) was performed based on the binding to a CHO-K1 cell line stably expressing CD47. CHO-K1-CD47 cells (CHO-K1 cells expressing human CD47 protein) were added to each well of a 96-well plate (Eppendorf, Cat. No. C030730.119) at 1.2×10⁴ cells per well and incubated with anti-CD47 antibodies (20 μg/mL, 1:4 dilution in PBS) at room temperature for 1-2 h. […] The cells were incubated at room temperature for 30 min. The cells were washed three times with PBS buffer. A nuclear dye Hoechst (Sigma, Cat. No. B2261) was diluted with PBS buffer at a dilution ratio of 1:500 and then added to each well at 100 μL/well for staining for 10 min. The cells were washed 3 times with PBS and analyzed using a high content screening system (manufacturer: PerkinElmer; model: Operetta).

| EC50 | Binder |
| --- | --- |
| 3.87 µg/mL | B2 |
| 0.499 µg/mL | B7 |
| 0.471 µg/mL | B8 |
| 1.12 µg/mL | B4 |
| 0.876 µg/mL | B9 |
| 1.18 µg/mL | B10 |
| 1.48 µg/mL | B11 |
| 1.27 µg/mL | B12 |
| 1.49 µg/mL | B13 |
| 1.2 µg/mL | B5 |
| 1.16 µg/mL | B6 |
| 1.07 µg/mL | B14 |
| 1.26 µg/mL | B15 |
| 1.12 µg/mL | B16 |

The binders below were run against T2, human CD47 protein, His Tag … (assay: ELISA, CD47-His coated, competition with Human-SIRPα-mFc).
Experimental: The plate was let stand at 2-8° C. overnight. The wells were aspirated to remove the coating buffer and blocked with 100 μL/well of a blocking solution (PBS with 1% (w/v) bovine serum albumin (BSA, Sigma, Cat. No. B2064-100G)) by incubation at 37° C. for 1 h. The 96-well plate was washed with a washing buffer (PBS with 0.01% (w/v) Tween 20 (Sigma, Cat. No. P9416-100ML)). […] After the 96-well plate was washed with PBS washing buffer, anti-CD47 chimeric antibodies or anti-CD47 humanized antibodies (see Table 8 for chimeric antibodies, and see Table 9 for humanized antibodies) were added. 4-fold dilution was performed with PBS buffer from a starting concentration of 20 μg/mL, with 8 gradients obtained. The plate was incubated at room temperature for 1.5 h. […] After the 96-well plate was washed with PBS buffer, 100 μL/well of a substrate solution TMB (TIANGEN, Cat. No. PA107-01) was added, and the plate was incubated at room temperature for color development for 10 min. 100 μL/well of 1 M H₂SO₄ was added to stop the reaction. Colorimetric signals were generated and read at 450 nm using a multifunctional microplate reader (manufacturer: PerkinElmer; model: EnVision). Data were analyzed using GraphPad Prism5, and EC₅₀ was calculated.

| IC50 | Binder |
| --- | --- |
| 2.94 µg/mL | B1 |
| 2.05 µg/mL | B3 |
| 0.703 µg/mL | B7 |
| 0.621 µg/mL | B8 |
| 1.68 µg/mL | B4 |
| 1.53 µg/mL | B9 |
| 1.77 µg/mL | B10 |
| 1.7 µg/mL | B11 |
| 1.69 µg/mL | B12 |
| 1.84 µg/mL | B13 |
| 1.74 µg/mL | B5 |
| 1.95 µg/mL | B6 |
| 1.61 µg/mL | B14 |
| 1.82 µg/mL | B15 |
| 1.73 µg/mL | B16 |

Reference: patent US20240294635A1 (CHIA TAI TIANQING PHARMACEUTICAL GROUP, published 2024)
